Measured values as given in PMC5809688 (Molecular and Cellular Biology, 2017).

Legend:
[1] = molecular target: T1, wild-type p38α mitogen-activated protein kinase (UniProt P47811 1-360); assay: ITC; ITC200 microcalorimeter (Microcal); T = 298 K; heats corrected for dilution; which partner was titrated is not stated; details: both partners purified
T1 construct: His6 tag followed by a TEV cleavage site at the N-terminal end; also called wtp38α

[2] = molecular target: T2, p38α(T185G) (UniProt P47811 1-360, T185G); assay: as above; details: both partners purified
T2 construct: PCR product described as a full-length p38α harboring the desired mutation; His6 tag followed by a TEV cleavage site at the N-terminal end; also called T185G mutant; p38α(T185G) mutant kinase
T2 sequence (P47811 whole entry T185G): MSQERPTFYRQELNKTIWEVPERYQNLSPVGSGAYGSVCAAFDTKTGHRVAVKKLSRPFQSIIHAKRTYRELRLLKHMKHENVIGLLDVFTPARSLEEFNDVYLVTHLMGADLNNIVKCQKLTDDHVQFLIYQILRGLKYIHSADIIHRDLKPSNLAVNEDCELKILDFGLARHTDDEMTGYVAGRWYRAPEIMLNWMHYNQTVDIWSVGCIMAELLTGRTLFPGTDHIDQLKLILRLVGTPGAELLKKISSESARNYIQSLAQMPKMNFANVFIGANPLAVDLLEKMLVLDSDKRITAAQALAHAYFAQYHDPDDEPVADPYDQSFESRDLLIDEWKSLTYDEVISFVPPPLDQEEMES

T1 sequence (P47811 whole entry): as the sequence (P47811 whole entry T185G) above, with G185T counted along it

Kd [1]: 2.9 µM
dH [1]: -13.6 kcal/mol
stoichiometry N [1]: 0.8
Kd [2]: 1.1 µM
dH [2]: -9.6 kcal/mol
stoichiometry N [2]: 0.7
Binder: GGRVYPVSVPYSSAQSTSKTSVTLSLVMP (peptide, UniProt Q15750 384-412, looked up)
